Patent US20070009442A1, “Macrocyclic metal complexes and their use for the production of conjugates with biomolecules” (priority 2001, published 2007)

What was measured:
[1] = Relaxivity of the conjugates in aqueous solution; assay type: physicochemical; settings: +37° C., 20 MHz, relaxivity per mol of gadolinium calculated from the measured values
Procedure: (§1) As comparison substances, Gd-DTPA (1) with the formula: [drawing 16] and Gd-GlyMeDOTA (2) with the formula: [drawing 17] which were reacted in each case with bovine serum albumin (BSA), were used.
(§2) The measurements were made in each case in aqueous solution and in plasma at +37° C. and a frequency of 20 MHz. The results are summarized in Table 2 below, whereby the indicated relaxivities per mol of gadolinium were calculated from the measured values: […]

[2] = Relaxivity of the conjugates in plasma; assay type: physicochemical; settings: +37° C., 20 MHz, relaxivity per mol of gadolinium calculated from the measured values
Procedure: as §1, §2

Gd-GlyMeDOTA [Vergleichssubstanz 2]
R1 (H2O) [1]: 18.3 L/mmol/s
R1 (Plasma) [2]: 20.8 L/mmol/s
